According to US20240261333A1, “NOVEL TARGETS FOR ENHANCING ANTI-TUMOR IMMUNITY” (THE BROAD INSTITUTE, INC., priority 2021, published 2024):

Legend:
EMD = EMD (UniProt P50402); experiment: co-IP, anti-FLAG, N-FLAG B3GNT2 cell lysate, mass spectrometry
MTDH = MTDH (UniProt Q86UE4); experiment: as above
PBXIP1 = PBXIP1 (UniProt Q96AQ6); experiment: as above
RPL35 = RPL35 (UniProt P42766); experiment: as above
TMEM59 = TMEM59 (UniProt Q9BXS4); experiment: as above
ARF4 (human) = ARF4 (human) (UniProt P18085); experiment: co-IP with control IgG, mass spectrometry; lysate of cells with C-FLAG B3GNT2
CCT2 (human) = CCT2 (human) (UniProt P78371); experiment: as above
CCT7 (human) = CCT7 (human) (UniProt Q99832); experiment: as above
CCT7 (human), sequence (Q99832 45-543 limits assumed): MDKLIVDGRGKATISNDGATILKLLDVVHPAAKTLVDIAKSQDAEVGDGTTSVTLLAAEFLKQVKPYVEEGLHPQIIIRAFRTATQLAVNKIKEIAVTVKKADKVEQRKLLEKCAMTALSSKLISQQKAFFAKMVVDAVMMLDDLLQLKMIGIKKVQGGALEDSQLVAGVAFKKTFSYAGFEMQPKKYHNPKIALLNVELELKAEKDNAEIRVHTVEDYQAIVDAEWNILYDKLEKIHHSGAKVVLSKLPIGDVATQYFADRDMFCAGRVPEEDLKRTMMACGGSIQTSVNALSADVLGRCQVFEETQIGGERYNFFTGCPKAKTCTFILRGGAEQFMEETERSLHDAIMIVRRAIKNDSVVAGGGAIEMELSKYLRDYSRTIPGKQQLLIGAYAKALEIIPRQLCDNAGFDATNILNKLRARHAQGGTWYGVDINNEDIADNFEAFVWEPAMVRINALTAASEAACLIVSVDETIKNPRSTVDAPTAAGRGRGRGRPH

CD70 (human) = CD70 (human) (UniProt P32970); experiment: as above
CTHRC1 (human) = CTHRC1 (human) (UniProt Q96CG8); experiment: as above
DNAJB11 (human) = DNAJB11 (human) (UniProt Q9UBS4); experiment: as above
EIF4A1 (human) = EIF4A1 (human) (UniProt P60842); experiment: as above
EIF4A1 (human), sequence (P60842 2-406 limits assumed): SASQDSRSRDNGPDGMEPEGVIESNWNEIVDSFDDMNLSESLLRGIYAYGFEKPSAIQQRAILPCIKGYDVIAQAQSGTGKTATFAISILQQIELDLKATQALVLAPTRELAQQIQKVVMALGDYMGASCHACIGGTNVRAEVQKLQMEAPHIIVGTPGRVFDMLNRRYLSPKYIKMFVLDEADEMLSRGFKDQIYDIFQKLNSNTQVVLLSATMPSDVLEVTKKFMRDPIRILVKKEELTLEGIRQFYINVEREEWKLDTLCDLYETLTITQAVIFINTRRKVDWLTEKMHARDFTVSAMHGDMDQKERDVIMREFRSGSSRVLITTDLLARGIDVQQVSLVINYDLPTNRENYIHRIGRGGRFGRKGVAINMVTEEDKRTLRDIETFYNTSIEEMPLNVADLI

EPRS (human) = EPRS (human) (UniProt P07814); experiment: as above
GALNT2 (human) = GALNT2 (human) (UniProt Q10471); experiment: as above
GANAB (human) = GANAB (human) (UniProt Q14697); experiment: as above
GAPDH (human) = GAPDH (human) (UniProt P04406); experiment: as above
GAPDH (human), sequence (P04406 2-335 limits assumed): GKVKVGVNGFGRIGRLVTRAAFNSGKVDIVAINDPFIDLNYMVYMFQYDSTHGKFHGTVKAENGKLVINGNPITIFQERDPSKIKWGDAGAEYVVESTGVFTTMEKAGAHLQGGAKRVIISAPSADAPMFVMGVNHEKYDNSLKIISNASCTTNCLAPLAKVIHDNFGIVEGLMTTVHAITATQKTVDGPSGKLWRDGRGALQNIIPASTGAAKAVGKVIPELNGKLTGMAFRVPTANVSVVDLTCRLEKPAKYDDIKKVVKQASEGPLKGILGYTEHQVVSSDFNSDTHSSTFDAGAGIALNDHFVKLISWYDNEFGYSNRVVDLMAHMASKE

HADHA (human) = HADHA (human) (UniProt P40939); experiment: as above
HSPD1 (human) = HSPD1 (human) (UniProt P10809); experiment: as above
IPO13 (human) = IPO13 (human) (UniProt O94829); experiment: as above
MAGT1 (human) = MAGT1 (human) (UniProt Q9H0U3); experiment: as above
MARS (human) = MARS (human) (UniProt P56192); experiment: as above
MARS (human), sequence (P56192 whole entry): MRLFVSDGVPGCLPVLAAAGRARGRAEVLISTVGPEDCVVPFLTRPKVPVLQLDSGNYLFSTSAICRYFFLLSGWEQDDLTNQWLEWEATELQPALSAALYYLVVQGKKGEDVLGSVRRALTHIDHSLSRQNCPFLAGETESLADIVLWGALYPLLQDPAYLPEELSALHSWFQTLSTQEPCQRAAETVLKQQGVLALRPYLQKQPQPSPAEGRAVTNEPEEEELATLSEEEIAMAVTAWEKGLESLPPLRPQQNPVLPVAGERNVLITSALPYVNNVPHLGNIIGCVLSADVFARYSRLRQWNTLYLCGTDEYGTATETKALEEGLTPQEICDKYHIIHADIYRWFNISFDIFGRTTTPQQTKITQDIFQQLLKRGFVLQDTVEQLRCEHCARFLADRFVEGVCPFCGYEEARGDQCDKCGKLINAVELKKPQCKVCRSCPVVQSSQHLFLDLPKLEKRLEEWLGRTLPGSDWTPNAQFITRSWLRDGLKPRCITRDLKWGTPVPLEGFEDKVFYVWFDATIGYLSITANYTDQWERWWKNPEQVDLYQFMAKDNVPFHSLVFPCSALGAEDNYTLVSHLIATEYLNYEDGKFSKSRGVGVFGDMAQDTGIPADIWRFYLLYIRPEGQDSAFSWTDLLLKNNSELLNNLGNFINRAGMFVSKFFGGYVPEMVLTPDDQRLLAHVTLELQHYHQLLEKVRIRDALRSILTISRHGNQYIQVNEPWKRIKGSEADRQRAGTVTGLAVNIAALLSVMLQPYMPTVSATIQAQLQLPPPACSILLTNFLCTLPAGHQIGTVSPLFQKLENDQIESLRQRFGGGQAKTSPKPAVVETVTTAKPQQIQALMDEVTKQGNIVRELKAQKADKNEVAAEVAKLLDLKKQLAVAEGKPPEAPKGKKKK

MSN (human) = MSN (human) (UniProt P26038); experiment: as above
NPM1 (human) = NPM1 (human) (UniProt P06748); experiment: as above
NPM1 (human), sequence (P06748 whole entry): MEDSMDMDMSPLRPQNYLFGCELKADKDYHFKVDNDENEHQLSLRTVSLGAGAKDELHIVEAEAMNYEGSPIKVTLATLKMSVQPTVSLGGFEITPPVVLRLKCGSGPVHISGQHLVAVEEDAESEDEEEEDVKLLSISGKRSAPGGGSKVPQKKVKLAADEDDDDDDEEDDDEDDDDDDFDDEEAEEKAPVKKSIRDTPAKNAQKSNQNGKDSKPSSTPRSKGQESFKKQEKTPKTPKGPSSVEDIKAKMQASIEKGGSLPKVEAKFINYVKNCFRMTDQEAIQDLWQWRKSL

PIGR (human) = PIGR (human) (UniProt P01833); experiment: as above
PIGR (human), sequence (P01833 19-764 limits assumed): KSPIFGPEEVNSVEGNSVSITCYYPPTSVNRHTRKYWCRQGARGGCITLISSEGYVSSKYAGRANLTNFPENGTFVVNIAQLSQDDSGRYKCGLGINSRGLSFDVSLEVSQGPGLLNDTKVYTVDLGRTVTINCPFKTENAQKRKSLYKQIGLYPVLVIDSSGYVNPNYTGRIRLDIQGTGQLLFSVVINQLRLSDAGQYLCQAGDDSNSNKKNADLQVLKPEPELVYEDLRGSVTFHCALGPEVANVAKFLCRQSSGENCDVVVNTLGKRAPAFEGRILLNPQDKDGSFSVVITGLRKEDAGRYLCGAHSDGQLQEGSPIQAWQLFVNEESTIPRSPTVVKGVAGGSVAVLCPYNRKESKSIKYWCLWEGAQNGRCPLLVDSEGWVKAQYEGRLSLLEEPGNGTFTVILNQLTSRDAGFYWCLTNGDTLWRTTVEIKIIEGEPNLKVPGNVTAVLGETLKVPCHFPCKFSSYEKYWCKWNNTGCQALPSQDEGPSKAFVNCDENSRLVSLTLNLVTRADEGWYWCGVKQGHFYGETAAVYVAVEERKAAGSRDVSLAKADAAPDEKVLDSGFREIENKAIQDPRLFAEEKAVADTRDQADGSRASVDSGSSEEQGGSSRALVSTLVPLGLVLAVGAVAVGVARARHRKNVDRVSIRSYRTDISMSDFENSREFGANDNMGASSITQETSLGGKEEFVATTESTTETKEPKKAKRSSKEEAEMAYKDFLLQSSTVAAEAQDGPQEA

PJA2 (human) = PJA2 (human) (UniProt O43164); experiment: as above
PSMD4 (human) = PSMD4 (human) (UniProt P55036); experiment: as above
RARS (human) = RARS (human) (UniProt P54136); experiment: as above
RPL26 (human) = RPL26 (human) (UniProt P61254); experiment: as above
RPL32 (human) = RPL32 (human) (UniProt P62910); experiment: as above
RPL9 (human) = RPL9 (human) (UniProt P32969); experiment: as above
RRP12 (human) = RRP12 (human) (UniProt Q5JTH9); experiment: as above
SDF4 (human) = SDF4 (human) (UniProt Q9BRK5); experiment: as above
SEL1L (human) = SEL1L (human) (UniProt Q9UBV2); experiment: as above
SEL1L (human), sequence (Q9UBV2 22-794 limits assumed): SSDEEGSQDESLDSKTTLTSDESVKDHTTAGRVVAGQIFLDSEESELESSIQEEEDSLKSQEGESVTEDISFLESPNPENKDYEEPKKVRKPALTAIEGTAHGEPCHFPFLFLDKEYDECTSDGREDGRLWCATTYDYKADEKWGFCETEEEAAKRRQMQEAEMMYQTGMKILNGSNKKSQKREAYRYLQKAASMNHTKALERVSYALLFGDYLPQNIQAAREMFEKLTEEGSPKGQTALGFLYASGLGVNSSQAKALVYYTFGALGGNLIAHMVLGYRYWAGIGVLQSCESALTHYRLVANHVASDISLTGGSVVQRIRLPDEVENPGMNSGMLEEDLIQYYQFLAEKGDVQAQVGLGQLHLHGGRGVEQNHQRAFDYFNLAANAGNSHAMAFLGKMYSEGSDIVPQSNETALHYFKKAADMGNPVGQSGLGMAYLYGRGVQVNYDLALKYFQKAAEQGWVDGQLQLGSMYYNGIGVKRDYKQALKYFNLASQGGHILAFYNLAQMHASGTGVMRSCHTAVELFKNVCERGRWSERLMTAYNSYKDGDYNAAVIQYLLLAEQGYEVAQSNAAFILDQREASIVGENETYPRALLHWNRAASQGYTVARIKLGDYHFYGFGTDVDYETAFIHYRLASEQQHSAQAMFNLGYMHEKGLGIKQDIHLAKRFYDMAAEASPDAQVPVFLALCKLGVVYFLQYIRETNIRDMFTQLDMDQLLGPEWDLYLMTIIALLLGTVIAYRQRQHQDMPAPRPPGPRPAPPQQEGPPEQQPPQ

SLC27A4 (human) = SLC27A4 (human) (UniProt Q6P1M0); experiment: as above
SLC27A4 (human), sequence (Q6P1M0 whole entry): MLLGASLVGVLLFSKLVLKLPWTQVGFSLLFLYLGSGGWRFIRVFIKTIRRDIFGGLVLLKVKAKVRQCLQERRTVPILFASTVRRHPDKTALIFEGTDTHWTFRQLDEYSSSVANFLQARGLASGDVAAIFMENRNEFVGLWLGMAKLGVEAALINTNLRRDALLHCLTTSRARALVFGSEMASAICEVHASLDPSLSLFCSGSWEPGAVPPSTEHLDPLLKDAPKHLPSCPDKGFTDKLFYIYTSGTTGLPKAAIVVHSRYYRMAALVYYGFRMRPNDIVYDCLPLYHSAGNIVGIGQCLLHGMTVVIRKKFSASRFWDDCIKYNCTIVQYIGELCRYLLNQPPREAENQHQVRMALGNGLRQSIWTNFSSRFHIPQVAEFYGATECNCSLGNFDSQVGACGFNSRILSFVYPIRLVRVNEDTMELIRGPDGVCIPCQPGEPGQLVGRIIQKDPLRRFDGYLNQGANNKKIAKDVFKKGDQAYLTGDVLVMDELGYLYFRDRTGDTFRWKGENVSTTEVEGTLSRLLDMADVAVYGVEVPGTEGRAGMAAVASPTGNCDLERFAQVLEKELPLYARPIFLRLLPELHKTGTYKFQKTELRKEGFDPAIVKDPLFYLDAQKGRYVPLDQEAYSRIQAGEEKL

SPRR1A (human) = SPRR1A (human) (UniProt P35321); experiment: as above
SPRR1A (human), sequence (P35321 whole entry): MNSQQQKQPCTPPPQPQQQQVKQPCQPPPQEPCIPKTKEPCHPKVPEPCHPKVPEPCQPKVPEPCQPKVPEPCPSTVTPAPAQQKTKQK

STAU2 (human) = STAU2 (human) (UniProt Q9NUL3); experiment: as above
TOR1AIP2 (human) = TOR1AIP2 (human) (UniProt Q8NFQ8); experiment: as above
UGGT1 (human) = UGGT1 (human) (UniProt Q9NYU2); experiment: as above

EMD, sequence (P50402 whole entry): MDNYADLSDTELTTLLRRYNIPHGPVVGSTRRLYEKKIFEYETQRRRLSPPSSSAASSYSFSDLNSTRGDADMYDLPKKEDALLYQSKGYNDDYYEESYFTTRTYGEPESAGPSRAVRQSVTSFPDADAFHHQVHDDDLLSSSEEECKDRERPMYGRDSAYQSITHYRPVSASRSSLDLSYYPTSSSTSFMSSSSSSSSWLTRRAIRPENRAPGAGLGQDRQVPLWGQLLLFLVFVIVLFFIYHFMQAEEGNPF

Work on “N-terminal FLAG tagged B3GNT2 (from UniProt Q9NY97 1-397) (enzyme)” yielded a co-IP mass spectrometry count (EMD) of 2, a co-IP mass spectrometry count (MTDH) of 0 and a co-IP mass spectrometry count (PBXIP1) of 2. It also gave a co-IP mass spectrometry count (RPL35) of 7 and a co-IP mass spectrometry count (TMEM59) of 6.

“IgG control (Millipore Sigma 12-371) (antibody)” was tested, and the co-IP mass spectrometry count (ARF4 (human)) was 0, the co-IP mass spectrometry count (CCT2 (human)) was 0 and the co-IP mass spectrometry count (CCT7 (human)) was 0. The co-IP mass spectrometry count (CD70 (human)) was 0, the co-IP mass spectrometry count (CTHRC1 (human)) was 0 and the co-IP mass spectrometry count (DNAJB11 (human)) was 0. It also gave a co-IP mass spectrometry count (EIF4A1 (human)) of 0, a co-IP mass spectrometry count (EPRS (human)) of 0 and a co-IP mass spectrometry count (GALNT2 (human)) of 0. The co-IP mass spectrometry count (GANAB (human)) was 0, the co-IP mass spectrometry count (GAPDH (human)) was 6 and the co-IP mass spectrometry count (HADHA (human)) was 0. It also gave a co-IP mass spectrometry count (HSPD1 (human)) of 2, a co-IP mass spectrometry count (IPO13 (human)) of 0 and a co-IP mass spectrometry count (MAGT1 (human)) of 0. For the same substance, the co-IP mass spectrometry count (MARS (human)) was 0, the co-IP mass spectrometry count (MSN (human)) was 0 and the co-IP mass spectrometry count (NPM1 (human)) was 0. For the same substance, the co-IP mass spectrometry count (PIGR (human)) was 0, the co-IP mass spectrometry count (PJA2 (human)) was 0 and the co-IP mass spectrometry count (PSMD4 (human)) was 0. For the same substance, the co-IP mass spectrometry count (RARS (human)) was 0, the co-IP mass spectrometry count (RPL26 (human)) was 4 and the co-IP mass spectrometry count (RPL32 (human)) was 0. For the same substance, the co-IP mass spectrometry count (RPL9 (human)) was 0, the co-IP mass spectrometry count (RRP12 (human)) was 0 and the co-IP mass spectrometry count (SDF4 (human)) was 0. It also gave a co-IP mass spectrometry count (SEL1L (human)) of 0, a co-IP mass spectrometry count (SLC27A4 (human)) of 0 and a co-IP mass spectrometry count (SPRR1A (human)) of 0. The co-IP mass spectrometry count (STAU2 (human)) was 0, the co-IP mass spectrometry count (TOR1AIP2 (human)) was 0 and the co-IP mass spectrometry count (UGGT1 (human)) was 0.
